# B1: Serine/threonine-protein kinase RAD53 (Saccharomyces cerevisiae), P22216 (parent)
# chain: MENITQPTQQSTQATQRFLIEKFSQEQIGENIVCRVICTTGQIPIRDLSADISQVLKEKRSIKKVWTFGRNPACDYHLGNISRLSNKHFQILLGEDGNLLLNDISTNGTWLNGQKVEKNSNQLLSQGDEITVGVGVESDILSLVIFINDKFKQCLEQNKVDRIRSNLKNTSKIASPGLTSSTASSMVANKTGIFKDFSIIDEVVGQGAFATVKKAIERTTGKTFAVKIISKRKVIGNMDGVTRELEVLQKLNHPRIVRLKGFYEDTESYYMVMEFVSGGDLMDFVAAHGAVGEDAGREISRQILTAIKYIHSMGISHRDLKPDNILIEQDDPVLVKITDFGLAKVQGNGSFMKTFCGTLAYVAPEVIRGKDTSVSPDEYEERNEYSSLVDMWSMGCLVYVILTGHLPFSGSTQDQLYKQIGRGSYHEGPLKDFRISEEARDFIDSLLQVDPNNRSTAAKALNHPWIKMSPLGSQSYGDFSQISLSQSLSQQKLLENMDDAQYEFVKAQRKLQMEQQLQEQDQEDQDGKIQGFKIPAHAPIRYTQPKSIEAETREQKLLHSNNTENVKSSKKKGNGRFLTLKPLPDSIIQESLEIQQGVNPFFIGRSEDCNCKIEDNRLSRVHCFIFKKRHAVGKSMYESPAQGLDDIWYCHTGTNVSYLNNNRMIQGTKFLLQDGDEIKIIWDKNNKFVIGFKVEINDTTGLFNEGLGMLQEQRVVLKQTAEEKDLVKKLTQMMAAQRANQPSASSSSMSAKKPPVSDTNNNGNNSVLNDLVESPINANTGNILKRIHSVSLSQSQIDPSKKVKRAKLDQTSKGPENLQFS
# partner: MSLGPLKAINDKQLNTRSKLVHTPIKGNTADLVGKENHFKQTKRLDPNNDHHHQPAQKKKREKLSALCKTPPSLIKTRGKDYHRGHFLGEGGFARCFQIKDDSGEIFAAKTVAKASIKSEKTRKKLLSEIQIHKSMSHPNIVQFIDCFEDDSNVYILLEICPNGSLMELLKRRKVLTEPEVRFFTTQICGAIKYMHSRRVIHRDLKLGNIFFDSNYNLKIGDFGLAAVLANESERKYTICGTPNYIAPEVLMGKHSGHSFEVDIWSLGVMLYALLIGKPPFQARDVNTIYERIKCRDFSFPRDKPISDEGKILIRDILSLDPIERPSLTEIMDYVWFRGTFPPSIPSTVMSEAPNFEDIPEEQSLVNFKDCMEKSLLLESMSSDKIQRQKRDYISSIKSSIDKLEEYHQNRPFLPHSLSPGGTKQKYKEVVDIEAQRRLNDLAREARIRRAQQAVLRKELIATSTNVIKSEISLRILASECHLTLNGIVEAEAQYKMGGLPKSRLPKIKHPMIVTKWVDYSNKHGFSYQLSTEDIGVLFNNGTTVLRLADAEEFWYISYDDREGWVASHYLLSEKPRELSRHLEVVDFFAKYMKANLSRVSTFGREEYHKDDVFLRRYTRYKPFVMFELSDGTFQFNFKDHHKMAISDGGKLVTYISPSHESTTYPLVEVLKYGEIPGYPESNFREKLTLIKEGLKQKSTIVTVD
# Variants of: B1
# Conditions: with cdc5_yeast CDC5, P32562
row,effect of a mutation on the interaction,Variant
1,disrupting interaction,R70A;R605A
